From publication PMC10786891, “Massively parallel profiling of RNA-targeting CRISPR-Cas13d”

T1: EsCas13d, nuclease-dead (Eubacterium siraeum, UniProt B0MS50, R295A;H300A;R849A;H854A)
T1 sequence: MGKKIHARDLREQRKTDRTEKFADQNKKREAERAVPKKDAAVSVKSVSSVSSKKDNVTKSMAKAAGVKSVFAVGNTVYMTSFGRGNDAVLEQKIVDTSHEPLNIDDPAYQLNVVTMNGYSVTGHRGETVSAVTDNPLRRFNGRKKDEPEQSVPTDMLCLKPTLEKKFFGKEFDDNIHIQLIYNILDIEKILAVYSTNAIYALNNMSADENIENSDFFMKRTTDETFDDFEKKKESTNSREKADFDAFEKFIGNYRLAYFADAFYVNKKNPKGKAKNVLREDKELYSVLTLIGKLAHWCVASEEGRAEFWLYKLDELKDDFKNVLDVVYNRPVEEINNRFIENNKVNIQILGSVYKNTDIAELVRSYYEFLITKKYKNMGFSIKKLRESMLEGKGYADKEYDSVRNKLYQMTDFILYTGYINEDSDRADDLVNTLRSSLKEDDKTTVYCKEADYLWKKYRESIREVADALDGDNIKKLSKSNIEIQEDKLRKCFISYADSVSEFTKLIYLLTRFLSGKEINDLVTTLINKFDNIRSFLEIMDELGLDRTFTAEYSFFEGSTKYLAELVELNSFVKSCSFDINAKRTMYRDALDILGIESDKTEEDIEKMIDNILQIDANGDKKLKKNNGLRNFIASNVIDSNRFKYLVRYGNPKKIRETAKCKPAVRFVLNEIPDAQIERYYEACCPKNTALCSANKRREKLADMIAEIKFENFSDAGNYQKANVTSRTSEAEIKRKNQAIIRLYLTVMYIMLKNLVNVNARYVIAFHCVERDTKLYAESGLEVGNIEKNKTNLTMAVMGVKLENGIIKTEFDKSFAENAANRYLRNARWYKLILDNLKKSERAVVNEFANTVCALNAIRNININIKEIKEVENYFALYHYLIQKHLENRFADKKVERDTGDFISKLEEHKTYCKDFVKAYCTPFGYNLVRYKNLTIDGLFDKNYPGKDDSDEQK

B1: target 1 MT 5'PFS GUA 3'PFS CAG (mixed)
RNA 1: CACCCGUGCAAAAAUGCAGGGGUCUAAAACUGAGCGGAUAACCUCUCUAUGG
RNA 2: GGGAAUGGAUCCACAUCUACGAAUUCGUACCAUAGAGAGGUUAUCCGCUCACAGAGAUCGGAAGAGCACACGU
B2: target 1 MT 5'PFS UGG 3'PFS UUA (mixed)
RNA 1: CACCCGUGCAAAAAUGCAGGGGUCUAAAACUGAGCGGAUAACCUCUCUAUGG
RNA 2: GGGAAUGGAUCCACAUCUACGAAUUCUGGCCAUAGAGAGGUUAUCCGCUCAUUAAGAUCGGAAGAGCACACGU
B3: target 1 MT 5'PFS CAA 3'PFS AAA (mixed)
RNA 1: CACCCGUGCAAAAAUGCAGGGGUCUAAAACUGAGCGGAUAACCUCUCUAUGG
RNA 2: GGGAAUGGAUCCACAUCUACGAAUUCCAACCAUAGAGAGGUUAUCCGCUCAAAAAGAUCGGAAGAGCACACGU
B4: target 1 MT 5'PFS UGC 3'PFS ACU (mixed)
RNA 1: CACCCGUGCAAAAAUGCAGGGGUCUAAAACUGAGCGGAUAACCUCUCUAUGG
RNA 2: GGGAAUGGAUCCACAUCUACGAAUUCUGCCCAUAGAGAGGUUAUCCGCUCAACUAGAUCGGAAGAGCACACGU
B5: target 1 insG 3' of 22,insU 3' of 2 (mixed)
RNA 1: CACCCGUGCAAAAAUGCAGGGGUCUAAAACUGAGCGGAUAACCUCUCUAUGG
RNA 2: GGGAAUGGAUCCACAUCUACGAAUUCGUACGCAUAGAGAGGUUAUCCGCUCUACCGAGAUCGGAAGAGCACACGU
B6: target 1 MT 5'PFS AGA 3'PFS AAU (mixed)
RNA 1: CACCCGUGCAAAAAUGCAGGGGUCUAAAACUGAGCGGAUAACCUCUCUAUGG
RNA 2: GGGAAUGGAUCCACAUCUACGAAUUCAGACCAUAGAGAGGUUAUCCGCUCAAAUAGAUCGGAAGAGCACACGU
B7: target 1 MT 5'PFS AGA 3'PFS AAC (mixed)
RNA 1: CACCCGUGCAAAAAUGCAGGGGUCUAAAACUGAGCGGAUAACCUCUCUAUGG
RNA 2: GGGAAUGGAUCCACAUCUACGAAUUCAGACCAUAGAGAGGUUAUCCGCUCAAACAGAUCGGAAGAGCACACGU
B8: target 1 MT 5'PFS AGA 3'PFS AAG (mixed)
RNA 1: CACCCGUGCAAAAAUGCAGGGGUCUAAAACUGAGCGGAUAACCUCUCUAUGG
RNA 2: GGGAAUGGAUCCACAUCUACGAAUUCAGACCAUAGAGAGGUUAUCCGCUCAAAGAGAUCGGAAGAGCACACGU
B9: target 1 MT 5'PFS UGC 3'PFS ACG (mixed)
RNA 1: CACCCGUGCAAAAAUGCAGGGGUCUAAAACUGAGCGGAUAACCUCUCUAUGG
RNA 2: GGGAAUGGAUCCACAUCUACGAAUUCUGCCCAUAGAGAGGUUAUCCGCUCAACGAGAUCGGAAGAGCACACGU
B10: target 1 MT 5'PFS ACU 3'PFS CAU (mixed)
RNA 1: CACCCGUGCAAAAAUGCAGGGGUCUAAAACUGAGCGGAUAACCUCUCUAUGG
RNA 2: GGGAAUGGAUCCACAUCUACGAAUUCACUCCAUAGAGAGGUUAUCCGCUCACAUAGAUCGGAAGAGCACACGU
B11: target 1 MT 5'PFS AAC 3'PFS UUC (mixed)
RNA 1: CACCCGUGCAAAAAUGCAGGGGUCUAAAACUGAGCGGAUAACCUCUCUAUGG
RNA 2: GGGAAUGGAUCCACAUCUACGAAUUCAACCCAUAGAGAGGUUAUCCGCUCAUUCAGAUCGGAAGAGCACACGU
B12: target 1 MT 5'PFS UGC 3'PFS ACA (mixed)
RNA 1: CACCCGUGCAAAAAUGCAGGGGUCUAAAACUGAGCGGAUAACCUCUCUAUGG
RNA 2: GGGAAUGGAUCCACAUCUACGAAUUCUGCCCAUAGAGAGGUUAUCCGCUCAACAAGAUCGGAAGAGCACACGU
B13: target 1 MT 5'PFS CAA 3'PFS AAC (mixed)
RNA 1: CACCCGUGCAAAAAUGCAGGGGUCUAAAACUGAGCGGAUAACCUCUCUAUGG
RNA 2: GGGAAUGGAUCCACAUCUACGAAUUCCAACCAUAGAGAGGUUAUCCGCUCAAACAGAUCGGAAGAGCACACGU

Target: T1, EsCas13d, nuclease-dead
Test: crRNA (strand 1, pre-loaded); Mg2+; 40 mM Tris-HCl pH 7.5, 150 mM NaCl, 6 mM MgCl2, 1 mM DTT, 0.1% Tween-20, 0.2 mg/ml BSA; 25 C; 10 min per concentration, then washed
Details: tags: His6-TwinStrep-SUMO cleaved; N-terminal SNAP kept (SNAP-Surface 488); label: 3' end held by stalled T7 RNA polymerase

| Binder | Kd [nM] |
| --- | --- |
| B1 | 17.6 ± 2.25 |
| B2 | 48.5 ± 10.5 |
| B3 | 43 ± 18 |
| B4 | 10.8 ± 2.45 |
| B5 | 29.7 ± 2.7 |
| B6 | 61 ± 22 |
| B7 | ~90 |
| B8 | ~65.5 |
| B9 | 16.2 ± 4.65 |
| B10 | ~80 |
| B11 | 14.1 ± 3.9 |
| B12 | 23.5 ± 8.5 |
| B13 | ~27.5 |
